Results as given in paper PMC9637154.
Read-outs that look alike come from different tables or passages of the source.

Columns and labels:
[1] = glycan lost
[2] = cell-surface biotinylation, anti-hACE2 western blot; conditions: glycan lost; control: full-length hACE2 wt
[3] = focus reduction neutralization test, Vero E6 cells; conditions: glycan lost; control: shACE2-wt

Row | Substance | other: virus entry into hACE2-expressing cells [1] | other: virus entry into hACE2-expressing cells, fold_change [1] | expression_or_secretion [2] | other: decoy neutralising activity of shACE2, other: FRNT50 [3] | other: decoy neutralising activity of shACE2, other: FRNT50 [1]
1 | angiotensin-converting enzyme 2 (hACE2): N322S | increases | – | – | – | –
2 | angiotensin-converting enzyme 2 (hACE2): N90S | increases | – | – | – | –
3 | angiotensin-converting enzyme 2 (hACE2): N90S/N322S | increases | increases | – | – | –
4 | angiotensin-converting enzyme 2 (hACE2): N53A | decreases | decreases | no change | – | –
5 | angiotensin-converting enzyme 2 (hACE2): N90A | increases | increases | no change | increases | –
6 | angiotensin-converting enzyme 2 (hACE2): N322A | increases | increases | no change | – | –
7 | angiotensin-converting enzyme 2 (hACE2): N53A/N90A/N322A | increases | increases | no change | increases | –
8 | angiotensin-converting enzyme 2 (hACE2): N90A/N322A | increases | increases | no change | increases | increases
